Here are results for one substance from article PMC10100567.

In this assay the target is high-affinity IgE receptor FcεRI on the surface of RBL-2H3 cells (rat (endogenous in RBL-2H3)). Description: Ligand Tracer.

In the case of “Cy5-labeled monoclonal mouse anti-DNP IgE (clone SPE-7) (antibody)”, the Kd (as a rule, a measure of binding affinity in units of concentration) turned out to be 1.3 nM. In other words, the single-digit nanomolar range.
